# Measured values from patent US20240317868A1 (Boehringer Ingelheim, published 2024).
# T1: human IL1RAP (human, UniProt Q9NPH3 21-367, limits assumed, biotinylated in the ELISA screens (site not stated))
# T1 construct: also called huIL1RAP; IL1RAP antigen
# T1 sequence (looked up): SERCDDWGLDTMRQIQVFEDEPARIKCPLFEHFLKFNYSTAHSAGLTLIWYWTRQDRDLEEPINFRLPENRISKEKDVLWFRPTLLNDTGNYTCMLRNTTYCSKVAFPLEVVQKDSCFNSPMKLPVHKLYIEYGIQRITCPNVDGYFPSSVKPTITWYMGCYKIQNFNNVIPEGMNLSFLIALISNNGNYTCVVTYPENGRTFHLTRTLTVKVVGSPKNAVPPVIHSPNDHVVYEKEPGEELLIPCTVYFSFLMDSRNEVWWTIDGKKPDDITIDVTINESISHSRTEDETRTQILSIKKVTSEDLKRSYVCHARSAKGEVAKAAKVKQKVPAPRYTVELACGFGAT
# Target: T1, human IL1RAP
# Assay: ELISA of point mutant IgG (heavy chain mutant with the parental chimeric light chain, CHO-E expression), one bar each, concentration not given
# Text: For light chain 13 variants (T25A, E27Q, N28S, N30S, Y50A, K52S, T53Y, A55Q, E56S, H90Q, H91S, G93S and S95P) and 19 heavy chain variants (Y27G, I28T, L30S, T31S, W33Y, M34I, N35S, Q50R, F521, A541, S55L, D56G, S57I, T58A, N61A, E62Q, M63K, K65Q and D66G) were generated separately in the vector pTT5 (See FIG. 3A/B). The light chain mutants were paired with the parental chimeric heavy chain and heavy chain mutants were paired with parental chimeric light chain for expression analysis in CHO-E cells for 7 days. The resulting variants were evaluated for binding in ELISA experiments and compared to the parental chimeric IgG which has mouse variable region but human constant regions. For light chain variants, six point mutants VK-T25A, E27Q, N28S, N30S, K52S and T53Y depicted binding similar to chimeric IgG (+10% control; FIG. 3A) while for heavy chain […] point mutants VH-I28T, L30S, M34I, N35S, D56G, T58A, N61A, E62Q, M63K, K65Q and D66G depicted similar binding as chimeric IgG (+10% control; FIG. 3B).
row,Binder,binding result
1,"GO11 chimeric IgG, heavy chain point mutant VH-D56G (antibody, V domains shown, Heavy chain mutant paired with the parental chimeric light chain; IgG backbone, expressed in CHO-E) VH: QVHLQQSGPELVRPGTSVKISCEASGYIFLTYWMNWVKQRPGQGLEWIGQIFPASGSTYYNEMFKDKARFTVDKSSSTAYMQFSSLTSEDTAVYFCARSGPYSYYAGGYALDYWGQGTSVTVSS VL: DIQMTQSPASLSASVGETVTITCRTSENINSYLAWYQQKQGKSPQLLVHYAKTLAEGVPSRFSGSGSGTQFSLKINSLKPEDFGSYYCQHHYGTSLTFGAGTKLELK",binds
2,"VH-Y27G (antibody, V domains shown, germlining point mutant, paired with the parental chimeric light chain; also called GO11 chimeric IgG, heavy chain point mutant Y27G; copies: 2 + 2) VH: QVHLQQSGPELVRPGTSVKISCEASGGIFLTYWMNWVKQRPGQGLEWIGQIFPASDSTYYNEMFKDKARFTVDKSSSTAYMQFSSLTSEDTAVYFCARSGPYSYYAGGYALDYWGQGTSVTVSS VL: DIQMTQSPASLSASVGETVTITCRTSENINSYLAWYQQKQGKSPQLLVHYAKTLAEGVPSRFSGSGSGTQFSLKINSLKPEDFGSYYCQHHYGTSLTFGAGTKLELKR",binds
3,"VH-S55L (antibody, V domains shown, germlining point mutant, paired with the parental chimeric light chain; also called GO11 chimeric IgG, heavy chain point mutant S55L; copies: 2 + 2) VH: QVHLQQSGPELVRPGTSVKISCEASGYIFLTYWMNWVKQRPGQGLEWIGQIFPALDSTYYNEMFKDKARFTVDKSSSTAYMQFSSLTSEDTAVYFCARSGPYSYYAGGYALDYWGQGTSVTVSS VL: DIQMTQSPASLSASVGETVTITCRTSENINSYLAWYQQKQGKSPQLLVHYAKTLAEGVPSRFSGSGSGTQFSLKINSLKPEDFGSYYCQHHYGTSLTFGAGTKLELKR",no binding
4,"GO11 chimeric IgG, heavy chain point mutant VH-M34I (antibody, V domains shown, Heavy chain mutant paired with the parental chimeric light chain; IgG backbone, expressed in CHO-E) VH: QVHLQQSGPELVRPGTSVKISCEASGYIFLTYWINWVKQRPGQGLEWIGQIFPASDSTYYNEMFKDKARFTVDKSSSTAYMQFSSLTSEDTAVYFCARSGPYSYYAGGYALDYWGQGTSVTVSS VL: DIQMTQSPASLSASVGETVTITCRTSENINSYLAWYQQKQGKSPQLLVHYAKTLAEGVPSRFSGSGSGTQFSLKINSLKPEDFGSYYCQHHYGTSLTFGAGTKLELK",binds
5,"GO11 chimeric IgG, heavy chain point mutant VH-D66G (antibody, V domains shown, Heavy chain mutant paired with the parental chimeric light chain; IgG backbone, expressed in CHO-E) VH: QVHLQQSGPELVRPGTSVKISCEASGYIFLTYWMNWVKQRPGQGLEWIGQIFPASDSTYYNEMFKGKARFTVDKSSSTAYMQFSSLTSEDTAVYFCARSGPYSYYAGGYALDYWGQGTSVTVSS VL: DIQMTQSPASLSASVGETVTITCRTSENINSYLAWYQQKQGKSPQLLVHYAKTLAEGVPSRFSGSGSGTQFSLKINSLKPEDFGSYYCQHHYGTSLTFGAGTKLELK",binds
6,"GO11 chimeric IgG, heavy chain point mutant VH-N35S (antibody, V domains shown, Heavy chain mutant paired with the parental chimeric light chain; IgG backbone, expressed in CHO-E) VH: QVHLQQSGPELVRPGTSVKISCEASGYIFLTYWMSWVKQRPGQGLEWIGQIFPASDSTYYNEMFKDKARFTVDKSSSTAYMQFSSLTSEDTAVYFCARSGPYSYYAGGYALDYWGQGTSVTVSS VL: DIQMTQSPASLSASVGETVTITCRTSENINSYLAWYQQKQGKSPQLLVHYAKTLAEGVPSRFSGSGSGTQFSLKINSLKPEDFGSYYCQHHYGTSLTFGAGTKLELK",binds
7,"VH-W33Y (antibody, V domains shown, germlining point mutant, paired with the parental chimeric light chain; also called GO11 chimeric IgG, heavy chain point mutant W33Y; copies: 2 + 2) VH: QVHLQQSGPELVRPGTSVKISCEASGYIFLTYYMNWVKQRPGQGLEWIGQIFPASDSTYYNEMFKDKARFTVDKSSSTAYMQFSSLTSEDTAVYFCARSGPYSYYAGGYALDYWGQGTSVTVSS VL: DIQMTQSPASLSASVGETVTITCRTSENINSYLAWYQQKQGKSPQLLVHYAKTLAEGVPSRFSGSGSGTQFSLKINSLKPEDFGSYYCQHHYGTSLTFGAGTKLELKR",binds
8,"GO11 chimeric IgG, heavy chain point mutant VH-I28T (antibody, V domains shown, Heavy chain mutant paired with the parental chimeric light chain; IgG backbone, expressed in CHO-E) VH: QVHLQQSGPELVRPGTSVKISCEASGYTFLTYWMNWVKQRPGQGLEWIGQIFPASDSTYYNEMFKDKARFTVDKSSSTAYMQFSSLTSEDTAVYFCARSGPYSYYAGGYALDYWGQGTSVTVSS VL: DIQMTQSPASLSASVGETVTITCRTSENINSYLAWYQQKQGKSPQLLVHYAKTLAEGVPSRFSGSGSGTQFSLKINSLKPEDFGSYYCQHHYGTSLTFGAGTKLELK",binds
9,"GO11 chimeric IgG, heavy chain point mutant VH-T58A (antibody, V domains shown, Heavy chain mutant paired with the parental chimeric light chain; IgG backbone, expressed in CHO-E) VH: QVHLQQSGPELVRPGTSVKISCEASGYIFLTYWMNWVKQRPGQGLEWIGQIFPASDSAYYNEMFKDKARFTVDKSSSTAYMQFSSLTSEDTAVYFCARSGPYSYYAGGYALDYWGQGTSVTVSS VL: DIQMTQSPASLSASVGETVTITCRTSENINSYLAWYQQKQGKSPQLLVHYAKTLAEGVPSRFSGSGSGTQFSLKINSLKPEDFGSYYCQHHYGTSLTFGAGTKLELK",binds
10,"GO11 chimeric IgG, heavy chain point mutant VH-L30S (antibody, V domains shown, Heavy chain mutant paired with the parental chimeric light chain; IgG backbone, expressed in CHO-E) VH: QVHLQQSGPELVRPGTSVKISCEASGYIFSTYWMNWVKQRPGQGLEWIGQIFPASDSTYYNEMFKDKARFTVDKSSSTAYMQFSSLTSEDTAVYFCARSGPYSYYAGGYALDYWGQGTSVTVSS VL: DIQMTQSPASLSASVGETVTITCRTSENINSYLAWYQQKQGKSPQLLVHYAKTLAEGVPSRFSGSGSGTQFSLKINSLKPEDFGSYYCQHHYGTSLTFGAGTKLELK",binds
11,"VH-Q50R (antibody, V domains shown, germlining point mutant, paired with the parental chimeric light chain; also called GO11 chimeric IgG, heavy chain point mutant Q50R; copies: 2 + 2) VH: QVHLQQSGPELVRPGTSVKISCEASGYIFLTYWMNWVKQRPGQGLEWIGRIFPASDSTYYNEMFKDKARFTVDKSSSTAYMQFSSLTSEDTAVYFCARSGPYSYYAGGYALDYWGQGTSVTVSS VL: DIQMTQSPASLSASVGETVTITCRTSENINSYLAWYQQKQGKSPQLLVHYAKTLAEGVPSRFSGSGSGTQFSLKINSLKPEDFGSYYCQHHYGTSLTFGAGTKLELKR",binds
12,"GO11 chimeric IgG, heavy chain point mutant VH-N61A (antibody, V domains shown, Heavy chain mutant paired with the parental chimeric light chain; IgG backbone, expressed in CHO-E) VH: QVHLQQSGPELVRPGTSVKISCEASGYIFLTYWMNWVKQRPGQGLEWIGQIFPASDSTYYAEMFKDKARFTVDKSSSTAYMQFSSLTSEDTAVYFCARSGPYSYYAGGYALDYWGQGTSVTVSS VL: DIQMTQSPASLSASVGETVTITCRTSENINSYLAWYQQKQGKSPQLLVHYAKTLAEGVPSRFSGSGSGTQFSLKINSLKPEDFGSYYCQHHYGTSLTFGAGTKLELK",binds
13,"GO11 chimeric IgG, heavy chain point mutant VH-M63K (antibody, V domains shown, Heavy chain mutant paired with the parental chimeric light chain; IgG backbone, expressed in CHO-E) VH: QVHLQQSGPELVRPGTSVKISCEASGYIFLTYWMNWVKQRPGQGLEWIGQIFPASDSTYYNEKFKDKARFTVDKSSSTAYMQFSSLTSEDTAVYFCARSGPYSYYAGGYALDYWGQGTSVTVSS VL: DIQMTQSPASLSASVGETVTITCRTSENINSYLAWYQQKQGKSPQLLVHYAKTLAEGVPSRFSGSGSGTQFSLKINSLKPEDFGSYYCQHHYGTSLTFGAGTKLELK",binds
14,"GO11 chimeric IgG, heavy chain point mutant VH-E62Q (antibody, V domains shown, Heavy chain mutant paired with the parental chimeric light chain; IgG backbone, expressed in CHO-E) VH: QVHLQQSGPELVRPGTSVKISCEASGYIFLTYWMNWVKQRPGQGLEWIGQIFPASDSTYYNQMFKDKARFTVDKSSSTAYMQFSSLTSEDTAVYFCARSGPYSYYAGGYALDYWGQGTSVTVSS VL: DIQMTQSPASLSASVGETVTITCRTSENINSYLAWYQQKQGKSPQLLVHYAKTLAEGVPSRFSGSGSGTQFSLKINSLKPEDFGSYYCQHHYGTSLTFGAGTKLELK",binds
15,"VH-S57I (antibody, V domains shown, germlining point mutant, paired with the parental chimeric light chain; also called GO11 chimeric IgG, heavy chain point mutant S57I; copies: 2 + 2) VH: QVHLQQSGPELVRPGTSVKISCEASGYIFLTYWMNWVKQRPGQGLEWIGQIFPASDITYYNEMFKDKARFTVDKSSSTAYMQFSSLTSEDTAVYFCARSGPYSYYAGGYALDYWGQGTSVTVSS VL: DIQMTQSPASLSASVGETVTITCRTSENINSYLAWYQQKQGKSPQLLVHYAKTLAEGVPSRFSGSGSGTQFSLKINSLKPEDFGSYYCQHHYGTSLTFGAGTKLELKR",binds
16,"VH-F52I (antibody, V domains shown, germlining point mutant, paired with the parental chimeric light chain; also called GO11 chimeric IgG, heavy chain point mutant F52I; copies: 2 + 2) VH: QVHLQQSGPELVRPGTSVKISCEASGYIFLTYWMNWVKQRPGQGLEWIGQIIPASDSTYYNEMFKDKARFTVDKSSSTAYMQFSSLTSEDTAVYFCARSGPYSYYAGGYALDYWGQGTSVTVSS VL: DIQMTQSPASLSASVGETVTITCRTSENINSYLAWYQQKQGKSPQLLVHYAKTLAEGVPSRFSGSGSGTQFSLKINSLKPEDFGSYYCQHHYGTSLTFGAGTKLELKR",binds
17,"GO11 chimeric IgG, heavy chain point mutant VH-K65Q (antibody, V domains shown, Heavy chain mutant paired with the parental chimeric light chain; IgG backbone, expressed in CHO-E) VH: QVHLQQSGPELVRPGTSVKISCEASGYIFLTYWMNWVKQRPGQGLEWIGQIFPASDSTYYNEMFQDKARFTVDKSSSTAYMQFSSLTSEDTAVYFCARSGPYSYYAGGYALDYWGQGTSVTVSS VL: DIQMTQSPASLSASVGETVTITCRTSENINSYLAWYQQKQGKSPQLLVHYAKTLAEGVPSRFSGSGSGTQFSLKINSLKPEDFGSYYCQHHYGTSLTFGAGTKLELK",binds
